The text below walks through data of paper PMC4721865.

The target in assay [1] is ASP1-GST fusion protein (aspartic protease ASP-1 of C. elegans) (C. elegans) (UniProt G5EEI4). Nature of the assay: ELISA; plates coated with 0.5 ug ASP-1/well in 20 mM HEPES pH 8.0, blocked with PBST 3% BSA, increasing concentrations of biotinylated toxin; specific binding = total minus binding with 1000-fold molar excess of unlabeled Cry6Aa. (An ELISA detects its analyte on a solid surface through an enzyme-linked reagent.)

For assay [2] the target is unchanged. Nature of the assay: ITC; 25 C, 20 mM HEPES pH 8.0; 21.16 uM Cry6Aa titrated into 2.20 uM ASP-1 in the cell, 20 injections of 10 uL.

One may read the Kd as the concentration at which binding is half-saturated. For “biotin-labeled crystal protein Cry6Aa (from UniProt Q45757 1-475) (natural protein)”, the Kd in assay [1] turned out to be 146 nM.
Substance “crystal protein Cry6Aa (unlabeled) (from UniProt Q45757 1-475) (natural protein)” registered a dissociation constant (Kd) in assay [2] of 126 nM.
